Data as given in publication PMC11051826, “Screening and Application of DNA Aptamers for Heparin-Binding Protein”.
Where a chain is given by its changes, count along the chain named.

T1: Heparin-binding protein (HBP) (Homo sapiens, UniProt P20160 27-248)
T1 sequence: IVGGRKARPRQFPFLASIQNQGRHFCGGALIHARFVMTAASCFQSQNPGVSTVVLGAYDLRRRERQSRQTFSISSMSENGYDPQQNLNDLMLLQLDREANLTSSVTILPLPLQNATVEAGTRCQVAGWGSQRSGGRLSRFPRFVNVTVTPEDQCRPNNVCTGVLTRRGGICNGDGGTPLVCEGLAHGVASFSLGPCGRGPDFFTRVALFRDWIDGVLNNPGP

T2: C-reactive protein (CRP) (UniProt P02741 19-224)
T2 sequence: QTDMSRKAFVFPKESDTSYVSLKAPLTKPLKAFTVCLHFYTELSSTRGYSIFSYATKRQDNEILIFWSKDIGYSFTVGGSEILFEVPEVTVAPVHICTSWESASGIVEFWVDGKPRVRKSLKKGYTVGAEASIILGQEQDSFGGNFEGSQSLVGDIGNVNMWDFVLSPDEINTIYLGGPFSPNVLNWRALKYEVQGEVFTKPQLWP

T3: Procalcitonin (PCT) (UniProt P01258 26-141)
T3 sequence: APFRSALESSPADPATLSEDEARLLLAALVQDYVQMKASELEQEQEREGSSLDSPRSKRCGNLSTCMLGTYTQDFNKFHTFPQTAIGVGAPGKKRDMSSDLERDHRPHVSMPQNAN

T4: Serum amyloid A1 (SAA1) (UniProt P0DJI8 19-122)
T4 sequence: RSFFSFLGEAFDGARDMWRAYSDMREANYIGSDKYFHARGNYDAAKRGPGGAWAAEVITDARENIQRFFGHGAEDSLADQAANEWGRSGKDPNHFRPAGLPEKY

B1: Apt-02 (ssDNA)
DNA: TTCAGCACTCCACGCATAGCTTCACCTACCGCGCAGCTCAGTCGTTGCCCACACGACCTATGCGTGCTACCGTGAA
B2: Apt-01 (ssDNA)
DNA: TTCAGCACTCCACGCATAGCTTCACCTACCGCAATCCGTTGCTCAGTGCTACCGCACCTATGCGTGCTACCGTGAA
B3: Apt-13 (ssDNA)
DNA: TTCAGCACTCCACGCATAGCTCATCGCCTGCGACATGCTAGCATGCTTTACTACTGCCTATGCGTGCTACCGTGAA
B4: Apt-12 (ssDNA)
DNA: TTCAGCACTCCACGCATAGCTTCACCTACTGGCATATGCCTCAGTCCACTCCTGGACCTATGCGTGCTACCGTGAA
B5: Apt-07 (ssDNA)
DNA: TTCAGCACTCCACGCATAGCCTTGCCTACCGGACGAAGTACTCAGTCACTCCGTGACCTATGCGTGCTACCGTGAA
B6: Apt-09 (ssDNA)
DNA: TTCAGCACTCCACGCATAGCCTTGCCTACCGATCCTGGATCTCAGCTGTACCACAGCCTATGCGTGCTACCGTGAA
B7: Apt-18 (ssDNA)
DNA: TTCAGCACTCCACGCATAGCTTTACCTACCGCATCGCTCAGTCAACCATTGGTGGACCTATGCGTGCTACCGTGAA
B8: Apt-20 (ssDNA)
DNA: TTCAGCACTCCACGCATAGCTTCACCTACCGCCGAAGGCTCAGTCCGTGCTTCGGACCTATGCGTGCTACCGTGAA
B9: Apt-05 (ssDNA)
DNA: TTCAGCACTCCACGCATAGCTTCACCTACACCGCGACCGCGTTCAGCCTCTGCAGGCCTATGCGTGCTACCGTGAA
B10: Apt-08 (ssDNA)
DNA: B3 DNA with C28G, T29A, T36C, C38T, G41C, A43G, T55C
B11: Apt-15 (ssDNA)
DNA: TTCAGCACTCCACGCATAGCTTCACCTACTGCCCTAGCTCAGCCGTCTCCATCCGGCCTATGCGTGCTACCGTGAA
B12: Apt-04 (ssDNA)
DNA: TTCAGCACTCCACGCATAGCTTCATCTACCCCGCCAAGGTCAGCCACGTCAGTGTGCCTATGCGTGCTACCGTGAA
B13: Apt-03 (ssDNA)
DNA: TTCAGCACTCCACGCATAGCTTCACCTACGAACGCCAGTGACAGCACCGATCAGTGCCTATGCGTGCTACCGTGAA
B14: Apt-14 (ssDNA)
DNA: TTCAGCACTCCACGCATAGCTTCACCTACCGCCAATCAGCTCAGTGTGTCTCCACACCTATGCGTGCTACCGTGAA

Biological target: T1, Heparin-binding protein (HBP)
Assay: SPR; HBP immobilized, PBS, 25 C; SPR: Biacore T200, CM5 with 815 RU HBP, aptamer 0-1 uM in PBS (NaCl 137 mM, KCl 2.67 mM, Na2HPO4 10 mM, KH2PO4 2 mM, pH 7.4; composition given for CD), 25 C; flow: 500 nM aptamer, PBS, room temperature, 60 min
Settings: protein: commercial; label: FAM in flow cytometry

| Binder | Kd [nM] |
| --- | --- |
| B1 | 1.44 |
| B2 | 3.42 |
| B3 | 1.04 |

Biological target: T2, C-reactive protein (CRP)
Assay: flow cytometry (magnetic beads); 500 nM aptamer; SPR: Biacore T200, CM5 with 815 RU HBP, aptamer 0-1 uM in PBS (NaCl 137 mM, KCl 2.67 mM, Na2HPO4 10 mM, KH2PO4 2 mM, pH 7.4; composition given for CD), 25 C; flow: 500 nM aptamer, PBS, room temperature, 60 min
Settings: protein: commercial; chain copies: 5; label: FAM in flow cytometry

| Binder | binding result |
| --- | --- |
| B1 | no binding |
| B2 | no binding |
| B3 | no binding |

Biological target: T3, Procalcitonin (PCT)
Assay: as above
Settings: protein: commercial; label: FAM in flow cytometry

| Binder | binding result |
| --- | --- |
| B1 | no binding |
| B2 | no binding |
| B3 | no binding |

Biological target: Interleukin-6 (IL-6) (UniProt P05231 30-212)
Assay: as above
Settings: protein: commercial; label: FAM in flow cytometry

Sequence of Interleukin-6 (IL-6) (P05231 30-212): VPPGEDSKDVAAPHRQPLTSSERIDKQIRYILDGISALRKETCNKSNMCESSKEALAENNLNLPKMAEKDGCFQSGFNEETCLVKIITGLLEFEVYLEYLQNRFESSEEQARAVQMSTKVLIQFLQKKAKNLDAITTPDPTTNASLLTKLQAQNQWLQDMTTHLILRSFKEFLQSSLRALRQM

| Binder | binding result |
| --- | --- |
| B1 | no binding |
| B2 | no binding |
| B3 | no binding |

Biological target: T4, Serum amyloid A1 (SAA1)
Assay: as above
Settings: protein: commercial; label: FAM in flow cytometry

| Binder | binding result |
| --- | --- |
| B1 | no binding |
| B2 | no binding |
| B3 | no binding |

Biological target: T1, Heparin-binding protein (HBP)
Assay: SPR; SPR: Biacore T200, CM5 with 815 RU HBP, aptamer 0-1 uM in PBS (NaCl 137 mM, KCl 2.67 mM, Na2HPO4 10 mM, KH2PO4 2 mM, pH 7.4; composition given for CD), 25 C; flow: 500 nM aptamer, PBS, room temperature, 60 min
Settings: protein: commercial

| Binder | binding signal [RU] |
| --- | --- |
| B4 | 107 |
| B5 | 76.2 |
| B6 | 87.5 |
| B7 | 41.2 |
| B8 | 99 |
| B9 | 132 |
| B10 | 79 |
| B11 | 72.5 |
| B12 | 121 |
| B13 | 119 |
| B14 | 50.3 |

Same assay, conditions: protein: commercial; label: FAM in flow cytometry

| Binder | binding signal [RU] |
| --- | --- |
| B1 | 162 |
| B2 | 424 |
